Data on two molecules can be found in patent US20220195043A1 (BEIJING MABWORKS BIOTECH, published 2022).

The target of test [1] is T1, human CD3ε-his (Cat #:10977-H08s, SinoBiological, China) (human, UniProt P07766 23-126).
T1 construct: Bought protein; also called human CD3ε protein; recombinant human CD3ε; not shown: his tag
The experiment in a line: SPR (BIAcore 8K); human CD3ε-his coupled to CM5 chip, antibody injected. On the technique in general: In SPR one partner is held on a chip, and binding of the other changes the refractive index at the surface.

Test [2] concerns the target T2, human CD20 (HEK293A/human CD20 cells) (human, UniProt P11836 1-297).
T2 sequence: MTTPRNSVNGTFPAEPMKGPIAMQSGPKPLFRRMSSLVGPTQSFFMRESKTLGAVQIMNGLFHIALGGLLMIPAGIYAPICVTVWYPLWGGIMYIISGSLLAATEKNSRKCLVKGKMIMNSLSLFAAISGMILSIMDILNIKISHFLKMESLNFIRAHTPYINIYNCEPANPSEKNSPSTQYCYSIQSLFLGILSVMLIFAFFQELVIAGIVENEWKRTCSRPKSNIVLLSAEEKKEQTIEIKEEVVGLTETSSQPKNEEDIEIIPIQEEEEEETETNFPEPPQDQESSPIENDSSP
The experiment in a line: cell-based or functional assay.

In test [3] the target is T2, human CD20 (HEK293A/human CD20 cells). The experiment in a line: FACS on HEK293A/human CD20 cells, PE anti-human IgG secondary antibody, MFI.
Test [4] has as its target T1, human CD3ε-his (Cat #:10977-H08s, …). The experiment in a line: ELISA: plate coated with human CD3ε-his (hCD3ε-his), antibody titrated, HRP goat anti-human IgG, OD450. (In general: In an ELISA, binding on a coated surface is turned into a signal by an enzyme label.)
The target of test [5] is T3, monkey CD20 (HEK293A/monkey CD20 cells) (monkey, UniProt P11836 1-297 (human entry)).
T3 construct: Stably expressed on HEK293A cells; also called cynomolgus CD20
T3 chain: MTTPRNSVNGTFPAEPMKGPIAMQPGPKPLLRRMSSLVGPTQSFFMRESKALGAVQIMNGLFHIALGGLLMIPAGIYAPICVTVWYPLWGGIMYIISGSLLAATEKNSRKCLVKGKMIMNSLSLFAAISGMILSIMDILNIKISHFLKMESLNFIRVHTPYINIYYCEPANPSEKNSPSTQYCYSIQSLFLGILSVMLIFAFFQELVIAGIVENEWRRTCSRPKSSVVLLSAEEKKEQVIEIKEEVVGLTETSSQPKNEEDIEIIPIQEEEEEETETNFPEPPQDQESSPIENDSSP
The test can be described thus: FACS on HEK293A/monkey CD20 (CynoCD20) cells, PE anti-human IgG secondary antibody, MFI.

T1 sequence (P07766 23-126 limits assumed): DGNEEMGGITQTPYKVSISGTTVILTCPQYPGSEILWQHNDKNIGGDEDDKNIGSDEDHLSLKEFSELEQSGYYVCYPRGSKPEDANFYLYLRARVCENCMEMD

B1: MBS303-1 (bispecific antibody against CD3 and CD20, MIL220 + MIL221-1) (bispecific antibody, human IgG1, kappa, lambda, L234A L235A, N297A)
heavy 1: QVQLVQSGAEVKKPGSSVKVSCKASGYAFSYSWINWVRQAPGQGLEWMGRIFPGDGDTDYNGKFKGRVTITADKSTSTAYMELSSLRSEDTAVYYCARNVFDGYWLVYWGQGTLVTVSSASTKGPSVFPLAPSSKSTSGGTAALGCLVKDYFPEPVTVSWNSGALTSGVHTFPAVLQSSGLYSLSSVVTVPSSSLGTQTYICNVNHKPSNTKVDKKVEPKSCDKTHTCPPCPAPEAAGGPSVFLFPPKPKDTLMISRTPEVTCVVVDVSHEDPEVKFNWYVDGVEVHNAKTKPREEQYASTYRVVSVLTVLHQDWLNGKEYKCKVSNKALPAPIEKTISKAKGQPREPQVYTLPPSREEMTKNQVSLSCAVKGFYPSDIAVEWESNGQPENNYKTTPPVLDSDGSFFLVSKLTVDKSRWQQGNVFSCSVMHEALHNHYTQKSLSLSPGK
light 1: DIVMTQTPLSLPVTPGEPASISCRSSKSLLHSNGITYLYWYLQKPGQSPQLLIYQMSNLVSGVPDRFSGSGSGTDFTLKISRVEAEDVGVYYCAQNLELPYTFGGGTKVEIKRTVAAPSVFIFPPSDEQLKSGTASVVCLLNNFYPREAKVQWKVDNALQSGNSQESVTEQDSKDSTYSLSSTLTLSKADYEKHKVYACEVTHQGLSSPVTKSFNRGEC
heavy 2: QVQLVQSGAEVKKPGSSVKVSCKASGYAFSYSWINWVRQAPGQGLEWMGRIFPGDGDTDYNGKFKGRVTITADKSTSTAYMELSSLRSEDTAVYYCARNVFDGYWLVYWGQGTLVTVSSGGGGSGGGGSGGGGSDIVMTQTPLSLPVTPGEPASISCRSSKSLLHSNGITYLYWYLQKPGQSPQLLIYQMSNLVSGVPDRFSGSGSGTDFTLKISRVEAEDVGVYYCAQNLELPYTFGGGTKVEIKGGGGSGGGGSGGGGSEVQLLESGGGLVQPGGSLRLSCAASGFTFNTYAMNWVRQAPGKGLEWVARIRSKYNNYATYYAISVKDRFTISRDNSKNTLYLQMNSLRAEDTAVYYCVKHGNFGNSYLSYWAYWGQGTLVTVSSASTKGPSVFPLAPSSKSTSGGTAALGCLVKDYFPEPVTVSWNSGALTSGVHTFPAVLQSSGLYSLSSVVTVPSSSLGTQTYICNVNHKPSNTKVDKKVEPKSCDKTHTCPPCPAPEAAGGPSVFLFPPKPKDTLMISRTPEVTCVVVDVSHEDPEVKFNWYVDGVEVHNAKTKPREEQYASTYRVVSVLTVLHQDWLNGKEYKCKVSNKALPAPIEKTISKAKGQPREPQVYTLPPSREEMTKNQVSLWCLVKGFYPSDIAVEWESNGQPENNYKTTPPVLDSDGSFFLYSKLTVDKSRWQQGNVFSCSVMHEALHNHYTQKSLSLSPGK
light 2: QAVVTQEPSLTVSPGGTVTLTCQSSTGAVTTNNYANWVQQKPGHAFRGLIGGTKQRAPGVPARFSGSLLGGKAALTLSGVQPEDEAEYYCVLWYSNLWVFGGGTKLTVLGQPKAAPSVTLFPPSSEELQANKATLVCLISDFYPGAVTVAWKADSSPVKAGVETTTPSKQSNNKYAASSYLSLTPEQWKSHRSYSCQVTHEGSTVEKTVAPT
notes: CD20:CD3 = 2:1
A word on the Kd: it is the constant that tells how readily two partners part at equilibrium. By EC50 (read off the curve) is commonly meant the concentration that produces a half-maximal response. On to B1, for which the affinity in test [1], expressed as Kd, was 1.99 nM. Moreover, in test [2], the “EC50 of killing of HEK293A/hCD20 cells by T cells, MBS303-1 alone” value worked out at 0.0076 µg/mL. The “EC50 of killing of HEK293A/hCD20 cells by T cells, MBS303-1 with 1 µg/ml MIL62” value in test [2] was determined as 0.0032 µg/mL. Moreover, the half-maximal effective concentration (EC50 (read off the curve)) is about 0.04 µg/mL in test [3] and about 0.06 µg/mL in test [4]. Besides, in test [5], the binding result is on record as “binds”.

B2: MBS303-2 (bispecific antibody against CD3 and CD20, MIL220 + MIL221-2) (bispecific antibody, human IgG1, kappa, lambda, L234A L235A, N297A)
heavy 1: QVQLVQSGAEVKKPGSSVKVSCKASGYAFSYSWINWVRQAPGQGLEWMGRIFPGDGDTDYNGKFKGRVTITADKSTSTAYMELSSLRSEDTAVYYCARNVFDGYWLVYWGQGTLVTVSSASTKGPSVFPLAPSSKSTSGGTAALGCLVKDYFPEPVTVSWNSGALTSGVHTFPAVLQSSGLYSLSSVVTVPSSSLGTQTYICNVNHKPSNTKVDKKVEPKSCDKTHTCPPCPAPEAAGGPSVFLFPPKPKDTLMISRTPEVTCVVVDVSHEDPEVKFNWYVDGVEVHNAKTKPREEQYASTYRVVSVLTVLHQDWLNGKEYKCKVSNKALPAPIEKTISKAKGQPREPQVYTLPPSREEMTKNQVSLSCAVKGFYPSDIAVEWESNGQPENNYKTTPPVLDSDGSFFLVSKLTVDKSRWQQGNVFSCSVMHEALHNHYTQKSLSLSPGK
light 1: DIVMTQTPLSLPVTPGEPASISCRSSKSLLHSNGITYLYWYLQKPGQSPQLLIYQMSNLVSGVPDRFSGSGSGTDFTLKISRVEAEDVGVYYCAQNLELPYTFGGGTKVEIKRTVAAPSVFIFPPSDEQLKSGTASVVCLLNNFYPREAKVQWKVDNALQSGNSQESVTEQDSKDSTYSLSSTLTLSKADYEKHKVYACEVTHQGLSSPVTKSFNRGEC
heavy 2: QVQLVQSGAEVKKPGSSVKVSCKASGYAFSYSWINWVRQAPGQGLEWMGRIFPGDGDTDYNGKFKGRVTITADKSTSTAYMELSSLRSEDTAVYYCARNVFDGYWLVYWGQGTLVTVSSGGGGSGGGGSGGGGSDIVMTQTPLSLPVTPGEPASISCRSSKSLLHSNGITYLYWYLQKPGQSPQLLIYQMSNLVSGVPDRFSGSGSGTDFTLKISRVEAEDVGVYYCAQNLELPYTFGGGTKVEIKGGGGSGGGGSGGGGSEVQLLESGGGLVQPGGSLRLSCAASGFTFNTYAMNWVRQAPGKGLEWVARIRSKYNNYATYYAISVKDRFTISRDDSKNTLYLQMNSLRAEDTAMYYCVRHGNFGNSYLSYWAYWGQGTLVTVSSASTKGPSVFPLAPSSKSTSGGTAALGCLVKDYFPEPVTVSWNSGALTSGVHTFPAVLQSSGLYSLSSVVTVPSSSLGTQTYICNVNHKPSNTKVDKKVEPKSCDKTHTCPPCPAPEAAGGPSVFLFPPKPKDTLMISRTPEVTCVVVDVSHEDPEVKFNWYVDGVEVHNAKTKPREEQYASTYRVVSVLTVLHQDWLNGKEYKCKVSNKALPAPIEKTISKAKGQPREPQVYTLPPSREEMTKNQVSLWCLVKGFYPSDIAVEWESNGQPENNYKTTPPVLDSDGSFFLYSKLTVDKSRWQQGNVFSCSVMHEALHNHYTQKSLSLSPGK
light 2: QAVVTQEPSLTVSPGGTVTLTCQSSTGAVTTNNYANWVQQKPGHAFRGLIGGTKQRAPGVPARFSGSLLGGKAALTLSGVQPEDEAEYYCVLWYSNLWVFGGGTKLTVLGQPKAAPSVTLFPPSSEELQANKATLVCLISDFYPGAVTVAWKADSSPVKAGVETTTPSKQSNNKYAASSYLSLTPEQWKSHRSYSCQVTHEGSTVEKTVAPT
notes: CD20:CD3 = 2:1
Molecule B2 gave a Kd in test [1] of 1.79 nM. In addition, the “EC50 of killing of HEK293A/hCD20 cells by T cells, MBS303-2 alone” value in test [2] turned out to be 0.0098 µg/mL. In addition, the “EC50 of killing of HEK293A/hCD20 cells by T cells, MBS303-2 with 1 µg/ml MIL62” value in test [2] turned out to be 0.0039 µg/mL. Besides, the “EC50 (read off the curve)” value was about 0.03 µg/mL in test [3], about 0.06 µg/mL in test [4] and about 0.06 µg/mL in test [5].
